The data set can be described thus: soluble fraction after stress (log2 fold change); higher = more stays soluble; pooled small domains, quantitative proteomics. To be noted: stress: 75 degC.

A value given as a limit tells only on which side of the number the result lay.
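Further: 20 min heating vs room temperature control held 20 min.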

As to “HMENEIVMPVQINGKKRGDLTIARDADQASIQKAVLELDFVKAALNGGSPKKVIVVPQRIVNVV”, the “soluble fraction (log2)” value is 0.338.

Take “HMENFKVFMKAVQEVSPVPVRFDEISSGAKGYYSNTEKEIVIQNGMSESQTMKTGIHEVTHAMLHDRDF”: the “soluble fraction (log2)” value amounted to 0.234.

Turning to “HMENFYGYEIINPEAKKFFITMGVNRYALEQWIKNKSEYGLIIVKSLYPFDPRLKLFLEKNRERIQNLIF”, the “soluble fraction (log2)” value is -0.526.

In the case of “HMENKLIELTLSLDKSERLDKILTQELSHTRSVIQQWLKSGFVSVNGEIVKANYKAKDGDHVTIQIE”, the “soluble fraction (log2)” value is -0.594.

As for “HMENKTGEVTVREDSALTLRQGPGTNYEKVGQAYRGDRVDVLEEQNGWYKVKTYDGKEAWASSSYISIV”, the “soluble fraction (log2)” value came out at 0.861.

As for “HMENMETSDIVARYSNMPGGIIEAFHEIVDRHGFLSQEAIIEAARGFGISVAEAYGVATFYSMFS”, the “soluble fraction (log2)” value is -0.342.

For “HMENMRLILASNLRRIREERRLSLNKVSELTGVSKSMLGQIERGESNPTLQTVWKIANGLRVSLTDLTEVP”, the “soluble fraction (log2)” value was -2.66.

Regarding “HMENRILLSEDSLKHLAQDIPIDIIEKLSVLKDQIYHRYDDFNSIVQGLLGGENYLKYKDNILSFVEQ”, the “soluble fraction (log2)” value turned out to be 0.424.

Consider “HMENSMDTDWDVSGVDPSQYRLLFSTLGAIAGVKDVGLNPDGLKIIHTPEALPAIKQAFDANNLKLKMRTN”, for which the “soluble fraction (log2)” value was -0.0945.

On to “HMENSPLTHREAEVMRLMSEGKSNRAISEHLVISEKTVKNHVSSILQKMSVDDRTQAVLQAIKNGWVD”, for which the “soluble fraction (log2)” value was 0.281.

On to “HMENTGFKDKKGNYIFDGDIVKDILGNIMKVEFKHFKWQLIPLNKTAFNMPMVDWLDLETETLNAEIIGN”, for which the “soluble fraction (log2)” value was -2.07.

As to “HMENTIESLLKAKGFNDIIVTVSDKQVDVVVSDKEIADNKRAQIEDVIKRKTGLEASAITITPA”, the “soluble fraction (log2)” value is 0.127.

Turning to “HMENVLFVNVLSMTVRELAEMMKIPVNKIIQDSFSKGIMMNPNQRLEYDNFAELAKKYGITVKI”, the “soluble fraction (log2)” value is -1.24.

As for “HMENVMLRNFAIQATEAGVIKLLEDQRTFVWGSNNKKFMTVPFDEHPYSAMAAFFKTDEGLEIYKSIEKKF”, the “soluble fraction (log2)” value was -1.97.

For “HMENYQIETFVKFIEESTGEDGVAFEDLFQNFTSRPAVITMFLALLEALRRNSIRIFQKEEFSQILIYPK”, the “soluble fraction (log2)” value was -0.0302.

In the case of “HMENYTYKYATSANVNIREEPNTDSTILGKTLLNTEFQVVEDVDGWSKITTEAGYAYIKSEYLSDTE”, the “soluble fraction (log2)” value was found to be 0.502.

Take “HMEPDEQAVKALIAEIDKLSKEKLTLKHEKKLKELREIYDDFTEEEKKLVTNYDILVKMEKRMEVLKKQEG”: the “soluble fraction (log2)” value stood at 0.127.

As to “HMEPDEYTVRQAFMKFDVGGEGRVPRDKLKALLETLGLELSAQQVRESEEQLDPEGTGFTSYGDFLMWWN”, the “soluble fraction (log2)” value was -0.793.

Turning to “HMEPEVSNTYEKVLGMHHFSSTRSHQLHDLVRQANALELSLGEIESIAQSAKDGAQVISDIKHWMEPNRQ”, the “soluble fraction (log2)” value was determined as 0.381.

Regarding “HMEPEWVINTDGSNLNEILAIDEVDSRKTFSNDLQEVYRTFGIEAARQILVQEIDAVIESSGA”, the “soluble fraction (log2)” value was determined as 0.082.

Take “HMEPFEQLLDRITSQTGKEPEEVVARMNELITERFDGNIRPEAALVIVAKRDNIQFMDLLDQLKQALL”: the “soluble fraction (log2)” value is -0.427.

With “HMEPIAFDNMHNRGIKGTNDWTQYEITLPFSAEAKKIFVAGLLVGKGKAWFDKFEVFLDGKNITDVAQI”, the “soluble fraction (log2)” value amounted to 0.0509.

Consider “HMEPPPSYSALLKQISSGKVKELQLVPARREVIVTYPDGRSATVAILANDQQILRTAEAAGTPLLVK”, for which the “soluble fraction (log2)” value is 0.189.

“HMEPQLVKSFDVQTELTYDQFLSKYPESHTLGRLLVQPEPIPFEPYKNIPGITPEKLLALHAKHLEAR”: the “soluble fraction (log2)” value came to 0.107.

For the sequence “HMEPQSRTAYRLIEAMIVTHELPPGSRISEASLSAKLGIGRTPIREALQRLSFEGTVKIVPRSGAFVSEI”, the “soluble fraction (log2)” value was -2.78.

Take “HMEPREALDGLISERGETYASISRLLGRNSAYIQQFIKRGSPARLDQSDIALLALHFDVPVEMLGGKE”: the “soluble fraction (log2)” value was -0.588.

Regarding “HMEPTIGTATVTSGSRLNMRSAKSTSASVVTRIPSGATVGVISYASDWSKVTYNGYTGYVSSPYISMNG”, the “soluble fraction (log2)” value is -1.19.

In the case of “HMEPVIELGDRTLPIEITRHRRARRLTLRLAADGSAVRITLPHWARSAEATAFAHARRDWLAAQLAK”, the “soluble fraction (log2)” value worked out at 0.181.

On to “HMEPVTETVYAMDTVNIRAAADQTSEKIGSVTVGTALTRTGTDGDWSIIDYNGTTGYVKSEFLSNTAPEV”, for which the “soluble fraction (log2)” value was found to be 0.253.

With “HMEQLIIQEELSGKRLDQLVSLLFPSLTRAHAQKLIKEGAVLVNEKPRKPAYAVMTGELLTVELPEPE”, the “soluble fraction (log2)” value was -0.167.

“HMEQNHYEVLGVSRDAIPEEIRKAYFEYARKLHPDANPDPGAAEQFMRIQTAYDVLSNPDRRHEYDGLLPP”: the “soluble fraction (log2)” value turned out to be 0.00418.

As for “HMEQRREEFILLAKELLEKELRKQNLEVHENLKPDVLNDVAKRLGMVSMDDLLAAVGDGKITPGTVVSKIV”, the “soluble fraction (log2)” value is -0.0625.

In the case of “HMEQVLNVAVRRGELIMSSAAEQTVRIYSSAGSMVWQGKVSASDVTVELPSGVYVVNGKKVV”, the “soluble fraction (log2)” value is -1.25.

“HMEQYFEDEELNDKFLEFLAMRKRVRKPVQTDRGMKMLLTSLHKLSGGDVGLMKQIIDQSLDNEWKKFVA”: the “soluble fraction (log2)” value is -1.14.

On to “HMERDIATKHEVNRTVEAYSDIVKTLNLPSHKINLVEISFFNILKRSKPSPRENSILLGLAQKIKLHLEKK”, for which the “soluble fraction (log2)” value was -0.737.

As for “HMERLKYSQVVDLFKGEQVKSFVLDESNQLKMELQDGSTVSYKLRSFEQFYLDLSDTVKEQKESGIITDYD”, the “soluble fraction (log2)” value was -0.685.

As to “HMERPPHELLSDREYQTMVMIASGRTLTQIAEEMSLSPKTVSVYRARLLEKMKLKNNAELTHYALKHKLV”, the “soluble fraction (log2)” value is -1.89.

Turning to “HMERPSLDQVLAHAKALGIAPARFVAYADGRWGTGWRLSPHGRARAWEELDRHRNDPLGYRDKLDVALQSG”, the “soluble fraction (log2)” value is -0.179.

“HMESAQLIINVAGKVSNPGVYQLPQGSRVVDAIEAAGKQLKGVDISDINLARVLVDGEQILVGGV”: the “soluble fraction (log2)” value turned out to be 0.363.

As for “HMESAVDVFRSILKEKGVTEEEVRQVVAARGKYTLETPIDDYPNEFLYGYVIRYWDQIFDIIQQSREAK”, the “soluble fraction (log2)” value is -1.06.

As for “HMESEAKLGVAFNGKTRFDMTFPADADNKTIEEAVLADERAQKYLEGFQVAKVIIVPKRMVNIVLK”, the “soluble fraction (log2)” value was -0.189.

For “HMESEIYKKIEKSRLLELAFTKSQKGDLTGAYDLYYQAFTKYDVIADNQNRYFEDFISLIRRKQQQD”, the “soluble fraction (log2)” value is -2.54.

On to “HMESGLPLPRFVSLGADEVNLRTGPGLRYPVAWVFVRKALPVEIVAEFEQWRRVRDFEGAEGWVHKAML”, for which the “soluble fraction (log2)” value was -0.163.

In the case of “HMESGSSKINQDILETFTRGKKSLSISDISRLSGHHRHTVARYLDNLVSSGKLEMRQHGQKKKYYLSDIQP”, the “soluble fraction (log2)” value is -0.314.

Take “HMESILDDFPGLGAVRRAALLEHFGDIDRLRAASAVEITEVDGFGDVLARELHDFLHRPKPDA”: the “soluble fraction (log2)” value is -0.515.

As for “HMESKKKTYTVKSGDTLVSILKREGVPQELIFKDYLGLFLELNPQISDINKLRVGQEIVLPVPG”, the “soluble fraction (log2)” value was determined as 0.05.

Turning to “HMESLGEKIKNIRISNNLKQSELADILHISEKTISSWENNRTTPDLNMIYKISNYFKKSFYYLISDDYI”, the “soluble fraction (log2)” value was -0.908.

On to “HMESMIGSLRGRLLELFGDGEVLIEVGGVGYRVIVTPTTTVRLGDVGGDVFVHVHHHIREADQTLYGF”, for which the “soluble fraction (log2)” value is -0.48.

For “HMESPSGGHRIALAFDQGTARAVDATYARLTGAGYEGRTKPWDAPWGQRYATVFDPDGNSVDLFAALE”, the “soluble fraction (log2)” value is -0.445.

“HMESRDRVRQASAAGYRFMSTMAGHEPGFEEASRALFAGDQTAFEARITAWPVDVQTHLKKILAEAFTT”: the “soluble fraction (log2)” value was -1.17.

“HMESRLQAAIALRKAGEHEQSREALKILADEPALRAQALLNIAWSFDNQGHERDAEGYYLAAIE”: the “soluble fraction (log2)” value is -0.381.

Take “HMESSKLQASIINYLERRPTQKFTAEELFKGLSLEKASVFNELVKELTSLERSHKVEITADDKFKIARPQ”: the “soluble fraction (log2)” value is -0.331.

As for “HMESSSQLGFELARLVESGNDEEARALVQAKELSEADERKWLYHLGNLLHAAGRPLQASAIWREVGT”, the “soluble fraction (log2)” value stood at 0.0141.

In the case of “HMESVQWSVFPSAKYVTIISFDPTTSGGSATAKFKVSDEARSKGFRFRIEAAIGEGIMRSEMYVIEE”, the “soluble fraction (log2)” value amounted to 0.215.

For the sequence “HMESWNRARILEKIRELHAQGVALNNASMRRLGYRGMMEAAARPQNFGSWEAAVRAAGIDYDRV”, the “soluble fraction (log2)” value was -0.275.

Take “HMETAVMPDVMKLDSTTAIQALKDKGFATIETYEVKSDRPAGVVVRQSETADSVVALSKEILLGVSNGADY”: the “soluble fraction (log2)” value is at least 1.04.

As to “HMETGFADTLRKFRKEADMTQEKLAEALGVTTGAVYKWENGRSTPEVRLLVEMADLFGTSVDALLDYKVR”, the “soluble fraction (log2)” value was -1.33.

In the case of “HMETGKLIKELRLKKGMTQEELADKTEVSSRTIQRIENGEVDPRAYTLQMIARALEVDYSLFME”, the “soluble fraction (log2)” value was -0.408.

In the case of “HMETIELSAPGGVRLDKLIADGTELSRSAAVKLIEQGNVLVNGSPAGKKDIPAAGAAVEITLPEPQ”, the “soluble fraction (log2)” value was determined as 0.0135.

In the case of “HMETIGENIKTYRQKKGYTQEEVANRLHVTRQTISKWEKNYSIPDAEVLVKLADVLEVQTSQLLGV”, the “soluble fraction (log2)” value is -0.374.

As for “HMETIGKRVRAARQELGLTMKQLHEQTGLSTGNISDIENDRNTPSVSSLVALGRALRRSLDWLLTGEE”, the “soluble fraction (log2)” value was -0.959.

For “HMETISEIWRLIDGLDEIYRVPLTMYYRSNRSVREIAETLGLSARTVETRIYRARRMIREKWSN”, the “soluble fraction (log2)” value is -2.06.

As to “HMETITDRLNRRSLELNVSQADIIRTTGAGRGTVSGWFSGANAPSAKYLESLAVALKTSTTWLLSGKD”, the “soluble fraction (log2)” value is -2.23.

For the sequence “HMETKERDEQFLEMIRQNEGIIFKVASFYVDKEHPIGDLYQEVVLNLWKGYPSFRGESKYSTWIYRIALNT”, the “soluble fraction (log2)” value stood at 0.058.

For “HMETKPTELMLEVHELRIGMFVHLDLGWMDHPFPLNRFKISTNSQIEQIKGLRLKQVKVMTALSDPTALS”, the “soluble fraction (log2)” value is -2.29.

On to “HMETKQYIVEAQDEGTRLDVYLTKELGQSRSYVQSLVKEGHVQVNGKTGKSNLKLSSSSEILVTIPEVQ”, for which the “soluble fraction (log2)” value came out at 0.067.

Take “HMETLKINTHLGTLNLKKRGKKGTWQINIYFKNIEGDNHYRQSTGTNQLELAKAKAMNMITTEYSNRLAGI”: the “soluble fraction (log2)” value is -1.67.

As to “HMETMSYAEFNAIRIGKAKLMLADPSLKIWEISEAVGYTDTAHFARTFKKLEGMSANEYRNSL”, the “soluble fraction (log2)” value is -0.862.

For the sequence “HMETNFTGTRIATARKAKNMSQAQLAQQLFISPQAVGKWERGESIPDIVTVVKLADVLGVDLNYFSE”, the “soluble fraction (log2)” value is -0.572.
